# T1: human GITR (human, UniProt Q9Y5U5 26-241)
# T1 sequence: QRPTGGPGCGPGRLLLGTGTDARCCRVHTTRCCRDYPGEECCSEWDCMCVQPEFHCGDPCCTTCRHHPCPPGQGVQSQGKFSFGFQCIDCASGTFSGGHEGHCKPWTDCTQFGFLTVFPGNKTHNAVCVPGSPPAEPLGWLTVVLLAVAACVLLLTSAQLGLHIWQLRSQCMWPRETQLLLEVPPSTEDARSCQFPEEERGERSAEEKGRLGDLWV
# T2: human GITR-Fc (Enzo Life Sciences, ALX-522-061-C050) (human, UniProt Q9Y5U5 26-162)
# T2 construct: Bought protein; not shown: Fc part of the bought fusion protein; not described
# T2 sequence: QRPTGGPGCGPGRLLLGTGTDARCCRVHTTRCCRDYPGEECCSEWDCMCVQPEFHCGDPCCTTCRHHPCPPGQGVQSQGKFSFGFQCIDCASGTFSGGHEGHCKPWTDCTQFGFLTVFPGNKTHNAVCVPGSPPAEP
# B1: A023100101 (VHH)
# chain: DVQLVESGGGVVQPGGSLRLSCAASETIFSIDSMAWYRQAPGKQRELVAAITGGGSPNYADSVKGRFTISSDVSKRTVYLQMNSLRPEDTALYYCNAEGQAGWGTALLDYWGQGTLVTVSSGGGGSGGGSEVQLVESGGGVVQPGGSLRLSCAASETIFSIDSMAWYRQAPGKQRELVAAITGGGSPNYADSVKGRFTISSDVSKRTVYLQMNSLRPEDTALYYCNAEGQAGWGTALLDYWGQGTLVTVSSGGGGSGGGSEVQLVESGGGVVQPGGSLRLSCAASETIFSIDSMAWYRQAPGKQRELVAAITGGGSPNYADSVKGRFTISSDVSKRTVYLQMNSLRPEDTALYYCNAEGQAGWGTALLDYWGQGTLVTVSSGGGGSGGGGSGGGGSGGGGSGGGGSGGGGSGGGGSEVQLVESGGGVVQPGGSLRLSCAASGFTFRSFGMSWVRQAPGKGPEWVSSISGSGSDTLYADSVKGRFTISRDNSKNTLYLQMNSLRPEDTALYYCTIGGSLSRSSQGTLVTVSSA
# B2: A023100118 (VHH)
# chain: DVQLVESGGGVVQPGGSLRLSCAASETIFSIDSMAWYRQAPGKQRELVAAITGGGSPNYADSVKGRFTISSDVSKRTVYLQMNSLRPEDTALYYCNAEGQAGWGTALLDYWGQGTLVTVSSGGGGSGGGSEVQLVESGGGVVQPGGSLRLSCAASETIFSIDSMAWYRQAPGKQRELVAAITGGGSPNYADSVKGRFTISSDVSKRTVYLQMNSLRPEDTALYYCNAEGQAGWGTALLDYWGQGTLVTVSSGGGGSGGGSEVQLVESGGGVVQPGGSLRLSCAASETIFSIDSMAWYRQAPGKQRELVAAITGGGSPNYADSVKGRFTISSDVSKRTVYLQMNSLRPEDTALYYCNAEGQAGWGTALLDYWGQGTLVTVSSGGGGSGGGSEVQLVESGGGVVQPGGSLRLSCAASETIFSIDSMAWYRQAPGKQRELVAAITGGGSPNYADSVKGRFTISSDVSKRTVYLQMNSLRPEDTALYYCNAEGQAGWGTALLDYWGQGTLVTVSSGGGGSGGGSEVQLVESGGGVVQPGGSLRLSCAASETIFSIDSMAWYRQAPGKQRELVAAITGGGSPNYADSVKGRFTISSDVSKRTVYLQMNSLRPEDTALYYCNAEGQAGWGTALLDYWGQGTLVTVSSGGGGSGGGGSGGGGSGGGGSGGGGSGGGGSGGGGSEVQLVESGGGVVQPGGSLRLSCAASGFTFRSFGMSWVRQAPGKGPEWVSSISGSGSDTLYADSVKGRFTISRDNSKNTLYLQMNSLRPEDTALYYCTIGGSLSRSSQGTLVTVSSA
# B3: A023100107 (VHH)
# chain: DVQLVESGGGVVQPGGSLRLSCAASETIFSIDSMAWYRQAPGKQRELVAAITGGGSPNYADSVKGRFTISSDVSKRTVYLQMNSLRPEDTALYYCNAEGQAGWGTALLDYWGQGTLVTVSSGGGGSGGGSEVQLVESGGGVVQPGGSLRLSCAASETIFSIDSMAWYRQAPGKQRELVAAITGGGSPNYADSVKGRFTISSDVSKRTVYLQMNSLRPEDTALYYCNAEGQAGWGTALLDYWGQGTLVTVSSGGGGSGGGSEVQLVESGGGVVQPGGSLRLSCAASETIFSIDSMAWYRQAPGKQRELVAAITGGGSPNYADSVKGRFTISSDVSKRTVYLQMNSLRPEDTALYYCNAEGQAGWGTALLDYWGQGTLVTVSSGGGGSGGGSEVQLVESGGGVVQPGGSLRLSCAASETIFSIDSMAWYRQAPGKQRELVAAITGGGSPNYADSVKGRFTISSDVSKRTVYLQMNSLRPEDTALYYCNAEGQAGWGTALLDYWGQGTLVTVSSGGGGSGGGGSGGGGSGGGGSGGGGSGGGGSGGGGSEVQLVESGGGVVQPGGSLRLSCAASGFTFRSFGMSWVRQAPGKGPEWVSSISGSGSDTLYADSVKGRFTISRDNSKNTLYLQMNSLRPEDTALYYCTIGGSLSRSSQGTLVTVSSA
# B4: A023100127 (VHH)
# chain: DVQLVESGGGVVQPGGSLRLSCAASGSIFSIDSMGWYRQAPGKQRELVAAITSSTNYADSVKGRFTISRDNSKNTVYLQMNSLRPEDTALYYCNLEGQAGWGTALINYWGQGTLVTVSSGGGGSGGGSEVQLVESGGGVVQPGGSLRLSCAASGSIFSIDSMGWYRQAPGKQRELVAAITSSTNYADSVKGRFTISRDNSKNTVYLQMNSLRPEDTALYYCNLEGQAGWGTALINYWGQGTLVTVSSGGGGSGGGSEVQLVESGGGVVQPGGSLRLSCAASGSIFSIDSMGWYRQAPGKQRELVAAITSSTNYADSVKGRFTISRDNSKNTVYLQMNSLRPEDTALYYCNLEGQAGWGTALINYWGQGTLVTVSSGGGGSGGGSEVQLVESGGGVVQPGGSLRLSCAASGSIFSIDSMGWYRQAPGKQRELVAAITSSTNYADSVKGRFTISRDNSKNTVYLQMNSLRPEDTALYYCNLEGQAGWGTALINYWGQGTLVTVSSGGGGSGGGGSGGGGSGGGGSGGGGSGGGGSGGGGSEVQLVESGGGVVQPGGSLRLSCAASGFTFRSFGMSWVRQAPGKGPEWVSSISGSGSDTLYADSVKGRFTISRDNSKNTLYLQMNSLRPEDTALYYCTIGGSLSRSSQGTLVTVSSA
# B5: A0231051E01 (VHH)
# VHH: EVQLVESGGGLVQAGGSLRLSCAASGSIFSFIVMGWYRQAPGEQRALVATVTSGGDTFYVDSVKDRFTISRDNAKNTVYLQMNSLKPEDTAVYFCYFTKVSPYKETTWGQGTLVTVSS
# notes: Monovalent Nanobody expressed in E. coli with a triple Flag, HIS6 tag; also called A0231PMP051E01; PA0231PMP051E01.1; not shown: C-terminal triple FLAG and HIS6 tag
# B6: A0231052E08 (VHH)
# VHH: EVQLVESGGGLVQAGGSLRLSCTGSRSIFSTYAMAWHRQAPGKQRELVGFIYWGGTTTYSDSVKGRFTISRDNAKNTMYLQMNSLKPEDAGVYYCNIYGSYALPWGQGTLVTVSS
# notes: Monovalent Nanobody expressed in E. coli with a triple Flag, HIS6 tag; also called A0231PMP052E08; PA0231PMP052E08.1; not shown: C-terminal triple FLAG and HIS6 tag
# B7: A023100105 (VHH)
# chain: DVQLVESGGGVVQPGGSLRLSCAASGSIFSIDSMGWYRQAPGKQRELVAAITSSTNYADSVKGRFTISRDNSKNTVYLQMNSLRPEDTALYYCNLEGQAGWGTALINYWGQGTLVTVSSGGGGSGGGSEVQLVESGGGVVQPGGSLRLSCAASGSIFSIDSMGWYRQAPGKQRELVAAITSSTNYADSVKGRFTISRDNSKNTVYLQMNSLRPEDTALYYCNLEGQAGWGTALINYWGQGTLVTVSSGGGGSGGGSEVQLVESGGGVVQPGGSLRLSCAASGSIFSIDSMGWYRQAPGKQRELVAAITSSTNYADSVKGRFTISRDNSKNTVYLQMNSLRPEDTALYYCNLEGQAGWGTALINYWGQGTLVTVSSGGGGSGGGGSGGGGSGGGGSGGGGSGGGGSGGGGSEVQLVESGGGVVQPGGSLRLSCAASGFTFRSFGMSWVRQAPGKGPEWVSSISGSGSDTLYADSVKGRFTISRDNSKNTLYLQMNSLRPEDTALYYCTIGGSLSRSSQGTLVTVSSA
# Target: T1, human GITR
# Assay: cell-based or functional assay
Binder,"EC50, HEK293_NF-κB luc reporter","Efficacy (%), human GITR ligand = 100%, HEK293_NF-κB luc reporter"
B1,0.02 nM,136%
B2,0.0128 nM,140%
B3,0.0147 nM,147%
B4,0.0157 nM,150%

# Target: T2, human GITR-Fc (Enzo Life Sciences, …)
# Assay: ProteOn XPR36; human GITR-Fc amine-coupled on GLC chip, Nanobody injected at 6 concentrations
# Description: Affinity was determined on the Proteon XPR36. Briefly, after human GITR-Fc (Enzo Life Sciences, ALX-522-061-C050) was immobilized on a GLC chip via amine coupling, a range of 6 concentrations of different monovalent Nanobodies (representing each family) were injected. The Ko values were determined by using the calculated association rate and dissociation rate constants (Table 1) (ProteOn Manager 3.1.0, Version 3.1.0.6 (2011)).
Binder,Kd,koff,kon
B5,78 nM,0.015 s⁻¹,190000 M⁻¹ s⁻¹
B6,120 nM,0.09 s⁻¹,750000 M⁻¹ s⁻¹

# Target: T1, human GITR
# Assay: cell-based or functional assay
# Remark: another data set of the same source
Binder,"EC50, IFN-γ read-out, human T cell activation assay","Maximal efficacy (%), human GITR ligand = 100%, IFN-γ read-out"
B1,0.0642 nM,92.6%
B7,0.06 nM,97%
B2,0.0426 nM,95.6%
B3,0.0646 nM,99.8%
B4,0.0587 nM,86.8%

# Reference: patent publication US20220411521A1 (Ablynx, published 2022)
